Data from the supplement of paper PMC12764529.
± gives the half width of the 95% confidence interval.

experiment: folding stability dG unfold from trypsin proteolysis; higher = more stable
In short: (§1)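 Unfolding free energy was derived, per protease or combined, by relating Bayesian-fitted K50 values from sequencing counts to a sequence-predicted unfolded-state K50 and a shared folded-state K50. The underlying digests exposed cysteine-free mini-proteins under 80 residues, in a PA-tagged cDNA display construct, to trypsin and chymotrypsin at 11 threefold-diluted concentrations and to a no-protease condition. A filter kept only designs with AlphaFold2 dimer inter-PAE above 15.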

Sequence	folding stability dG unfold [kcal/mol]
SAGGNNAWVQITIPITIKPVYEPEYDPDNGKPKWEPREMEIPITIWAPFDDPEDAERAADDILKSLGISAGG [r13_35_TrROS]	0.837 ± 0.037
SAGKVEIKEVSVDPNTDEVKVTFKNPNVPPGTKIVVYPKDGKPIEFETEPNKEVTLTLPKDVEKIEFEGSAG [r14_671_TrMRF]	-0.298 ± 0.13
SAGGSAGGSAGGNWVTIWIPFKMTHYRPDPDGKMYPHKHEMPRPITIPPGQATEDALDKISAGGSAGGSAGG [r7_777_TrROS]	0.165 ± 0.12
SAGGSAGGSAGGSVTYEADEVEIKEFTDPSTGKKYVTVTFPGPGGPVTTTLPADLIEELSAGGSAGGSAGGS [r10_447_JUSTAS]	0.96 ± 0.043
SAGGSAGGSAGGMSITISVPEKTATIEIPGLGKTITIPPGETITVPIPNVPPFKITTEPPSAGGSAGGSAGG [r11_939_JUSTAS]	0.76 ± 0.059
SAGGSAGGSAGNSVTILPIPETDKYLVVVSDNSGKFTVFDVDSSDLEDVVKALPSNYTVTSAGGSAGGSAGG [r11_569_TrMRF]	0.881 ± 0.025
SAARVTVTYDPATNTVTVTVEVEVDGVTVTVTATVTFVDGRLVLTVTVEVRPPPPPPSAEQLAALRAAASAG [r14_930_TrROS_Hall]	2.92 ± 0.19
SAGGSAPPVKVDVEELDDDLVKVTVTFPGGPFTLKLYKDGKLLKEETVPEDETATFVLPKDALIVGSAGGSA [r15_581_TrMRF]	0.847 ± 0.051
SAGGMPPGSFRVRARRPVPLFVRVRLPNDPDVTVTFPVTVPAELELPVNSPEALEALREAGFEIEPASAGGS [r8_482_TrMRF]	0.608 ± 0.14
SAGGSAGGSAAKVISVNPETGEVVVEYPDGSVGYFKVKGGVVEEVRSSPVLPVPEDDPLFTSAGGSAGGSAG [r3_406_TrMRF]	1.05 ± 0.032
SAGGSAGGSAGKAESGDNAITLTLPGGHKVTIPNLPPNEPVWVKLNNRWVKIGDLKVNPKSAGGSAGGSAGG [r11_16_TrMRF]	-0.131 ± 0.16
SMEEEEEEPEPAPVVVITVEPGETVEQVRAAAREAAEKGMRIVITGLSEEEAKAIAEELGLDVEIEVVEPSA [r9_1207_TrROS_Hall]	3.01 ± 0.33
SAGGSAGGSASIGGGPTGHSYKITLPNGTEKFLVMDPSTLKELIEKLGVKEVEVKDIGPLQSAGGSAGGSAG [r3_141_JUSTAS]	0.842 ± 0.077
SAGGMYVLPIDLDPASLTEEERLAVARELAEELYAAGVPGDVMLIIPREEKPLTITIDFATGEVTVVDSAGG [r19_204_JUSTAS]	1.32 ± 0.045
SYSTSTVTVPVAADEIDKAKEIAKELAEKLPPNSRVTFNMPAPDGSTFTVEVTVNPDGTITVTVSDSLPAVS [r1_350_JUSTAS]	1.55 ± 0.041
SAGGSAGGSAGGWAFMWVIEIEMPPEQMPPEDMKKFPNMRIEIEPYWVPIKIDPENGELRSAGGSAGGSAGG [r17_310_TrROS]	1.71 ± 0.075
SAGGAMVPVNFTLKFTYTNPDGTPVFREKPVTLPFPESDPAAAEAAARARAEAEAAARGVEVDLEVSLSAGG [r13_853_JUSTAS]	0.0284 ± 0.12
SALLEPLLLEVYIPATGEVITVPAKSLEEAEAIIAEVRADPTVASVRITLPDGTVVEVSFNVSPAAYLKSAG [r14_747_JUSTAS]	0.42 ± 0.12
SAGGSATPKDPDGKEWKPIAVIDIEEMRPETLKELLEENKGPIWIHPPGEGKPFWIPADEIEDMIDSAGGSA [r15_904_TrROS]	0.668 ± 0.054
SAGNPDKPPKPRTYTLEIEIKLPPGDPDQAKELAHEIAHEIRDLGIKDTEVEYDPGNGRVRISITFTFWSAG [r5_512_TrROS]	2.8 ± 0.076
SPEIKIEVFKNEDGEEIFIKIEVPPGWRIRIIYNGKEIEEIEVDGYRIRFEEVDGKLRIEVEPLPPGEKPSA [r9_221_TrROS_Hall]	3.87 ± 0.081

Sequence	folding stability dG unfold [kcal/mol]
SAGGSAGGSAGAKKLPPGQVALRIEPVTVTVTDEDGKERTVTRIRLVDAATGEEYEFTFPSAGGSAGGSAGG [r17_266_TrROS_Hall]	0.829 ± 0.1
SAGGSAGGSAGGMTIVLNIPKEELTEEEIKKLKESLPSDNPVKIIVKPKPPRKFYPKSTISAGGSAGGSAGG [r7_979_JUSTAS]	0.605 ± 0.024
SAGGSAKYYYIVAEIDLPNKKVRFVKKVKKGDVEKFKAEIKKAFPGKKIKVKVIEFESEEEAKKAASAGGSA [r15_889_TrMRF]	3.13 ± 0.14
SAGGSAGGSAPPPPPPVYRIPIEITEIDPNGKITVTLPDLGEEITFPAPNVEVIPGDEFYIPSAGGSAGGSA [r18_89_TrROS]	1.95 ± 0.11
SAGGSAGGSAGGSSFTIKVELKDENGNKYTITVTGTGSAETVKKELEKKYPNKIVKITGSAGGSAGGSAGGS [r4_412_TrMRF]	1.93 ± 0.089
SAGGGSVSITLELEEEEEIEEIVNEKGIPEPLEKRIKKKVTITISPPPTLSSSSSVTGLAEKAIEEKSAGGS [r16_359_JUSTAS]	-0.425 ± 0.22
SAGGSAGGSAMQRDPDGKPQPQVTFRIPADDMPEEQIKKHLPPEFADNFRDNMPEGDTITLSAGGSAGGSAG [r3_326_TrROS]	-0.688 ± 0.19
SAGGMTTTTVEVKRLPNGSIERTLKTTVPLPNGDLVVTTTKSIVYREDGKVVKEEVLETETTLLPATSAGGS [r8_36_JUSTAS]	2.58 ± 0.082
SAGGMTKEKALELAEEIAREFAKKHGIEKLELKVEDVVEKEDEVIVRLKIVYPDKVYELDLVVPKDYVSAGG [r13_611_TrMRF]	2.69 ± 0.11
SAGGSAGGSAGHIPIIFQFEFEHYDPDDGKPKEHRWVIVIEFDGNGIKNIRIIPKEDAKKLLSAGGSAGGSA [r18_406_TrROS]	2.31 ± 0.085
SAGGSAGGSAGSMFMIMIEYDPPGYIKVSINRYKMGPDGDFEPVEPETHEIPIPPGQPFFSAGGSAGGSAGG [r11_440_TrROS]	1.91 ± 0.14
SAGGSPISLEVSTSTLPDGTLRVTTTATSPDSSRSYTVTLDFPPSQPEEIPARAAAEAAAIAADPAVASAGG [r13_968_JUSTAS]	-0.552 ± 0.19
SAGGKKKKIKPKEIKVRIIIEKDGKKIEIELSEEELEKIKKAPTLEEIIKELEKKGFKIVKIEIEKKSAGGS [r16_567_TrROS_Hall]	1.19 ± 0.073
SAGGSAGGSAGYIKTEHEVTVMEKDPDGGTKMIEVPVKITIPIIPIPPEALEKNPEALKKFLSAGGSAGGSA [r18_114_TrROS]	0.461 ± 0.19
SAGGSAGGSAGGSGSSVLVKTTTTLSVAPGATITLPDGTVYTVPAGVPVTVTTWVLVETSAGGSAGGSAGGS [r4_232_JUSTAS]	2.31 ± 0.14
SKTFYAGLDVYFDPDSDELTALVGVRSEDGSYEPSLEEVAREVAAKLRELGYEVEVEPLPGYARIRVKPPSA [r9_510_TrMRF]	1.67 ± 0.039
SLRDIAKEIAEKAGMDPEDVEINVETEPDPKNGKPRLRITVSIEHPNRKYMIKIDFQDGEIEEIMPLEDISA [r9_1219_TrROS]	1.66 ± 0.099
SAGNFKIDINPENNMIMIKSPNGWFMFPFTYTRTQPEPDPDDPNEWKQRPRTETHYIMMPANDLKDLLNSAG [r5_234_TrROS]	0.679 ± 0.17
SAGGSAGGSAGKIYIVKLPNETIEIEFEGTEEEAIDFAIKELEKLFPKPIPKDDIIILGGSAGGSAGGSAGG [r11_1028_TrMRF]	1.76 ± 0.074
SPTVTETTLIASEEDPSSGVKTELTETTTIVKVGGTTTEVTTTTTTLTPEEDGKGTSTVTPSTTTTPIPASA [r9_375_JUSTAS]	0.84 ± 0.079
SAGGMIAPDEKVLVKVTLSEGTTSRELEFEFEVPPGATEEELKQRVIDEIPEEPRKNWKVEVEIKPVSAGGS [r16_321_JUSTAS]	0.918 ± 0.056

experiment: folding stability dG unfold from chymotrypsin proteolysis; higher = more stable
In short: as §1

Sequence	folding stability dG unfold [kcal/mol]
SAGGNNAWVQITIPITIKPVYEPEYDPDNGKPKWEPREMEIPITIWAPFDDPEDAERAADDILKSLGISAGG [r13_35_TrROS]	0.769 ± 0.12
SAGKVEIKEVSVDPNTDEVKVTFKNPNVPPGTKIVVYPKDGKPIEFETEPNKEVTLTLPKDVEKIEFEGSAG [r14_671_TrMRF]	0.381 ± 0.14
SAGGSAGGSAGGNWVTIWIPFKMTHYRPDPDGKMYPHKHEMPRPITIPPGQATEDALDKISAGGSAGGSAGG [r7_777_TrROS]	0.762 ± 0.14
SAGGSAGGSAGGSVTYEADEVEIKEFTDPSTGKKYVTVTFPGPGGPVTTTLPADLIEELSAGGSAGGSAGGS [r10_447_JUSTAS]	1.48 ± 0.03
SAGGSAGGSAGGMSITISVPEKTATIEIPGLGKTITIPPGETITVPIPNVPPFKITTEPPSAGGSAGGSAGG [r11_939_JUSTAS]	0.854 ± 0.044
SAGGSAGGSAGNSVTILPIPETDKYLVVVSDNSGKFTVFDVDSSDLEDVVKALPSNYTVTSAGGSAGGSAGG [r11_569_TrMRF]	1.13 ± 0.051
SAARVTVTYDPATNTVTVTVEVEVDGVTVTVTATVTFVDGRLVLTVTVEVRPPPPPPSAEQLAALRAAASAG [r14_930_TrROS_Hall]	2.69 ± 0.072
SAGGSAPPVKVDVEELDDDLVKVTVTFPGGPFTLKLYKDGKLLKEETVPEDETATFVLPKDALIVGSAGGSA [r15_581_TrMRF]	1.59 ± 0.064
SAGGMPPGSFRVRARRPVPLFVRVRLPNDPDVTVTFPVTVPAELELPVNSPEALEALREAGFEIEPASAGGS [r8_482_TrMRF]	0.114 ± 0.33
SAGGSAGGSAAKVISVNPETGEVVVEYPDGSVGYFKVKGGVVEEVRSSPVLPVPEDDPLFTSAGGSAGGSAG [r3_406_TrMRF]	1.2 ± 0.088
SAGGSAGGSAGKAESGDNAITLTLPGGHKVTIPNLPPNEPVWVKLNNRWVKIGDLKVNPKSAGGSAGGSAGG [r11_16_TrMRF]	0.227 ± 0.25
SMEEEEEEPEPAPVVVITVEPGETVEQVRAAAREAAEKGMRIVITGLSEEEAKAIAEELGLDVEIEVVEPSA [r9_1207_TrROS_Hall]	1.47 ± 0.16
SAGGSAGGSASIGGGPTGHSYKITLPNGTEKFLVMDPSTLKELIEKLGVKEVEVKDIGPLQSAGGSAGGSAG [r3_141_JUSTAS]	0.0184 ± 0.27
SAGGMYVLPIDLDPASLTEEERLAVARELAEELYAAGVPGDVMLIIPREEKPLTITIDFATGEVTVVDSAGG [r19_204_JUSTAS]	1.22 ± 0.055
SYSTSTVTVPVAADEIDKAKEIAKELAEKLPPNSRVTFNMPAPDGSTFTVEVTVNPDGTITVTVSDSLPAVS [r1_350_JUSTAS]	0.986 ± 0.13
SAGGSAGGSAGGWAFMWVIEIEMPPEQMPPEDMKKFPNMRIEIEPYWVPIKIDPENGELRSAGGSAGGSAGG [r17_310_TrROS]	2.68 ± 0.04
SAGGAMVPVNFTLKFTYTNPDGTPVFREKPVTLPFPESDPAAAEAAARARAEAEAAARGVEVDLEVSLSAGG [r13_853_JUSTAS]	0.219 ± 0.22
SALLEPLLLEVYIPATGEVITVPAKSLEEAEAIIAEVRADPTVASVRITLPDGTVVEVSFNVSPAAYLKSAG [r14_747_JUSTAS]	0.13 ± 0.16
SAGGSATPKDPDGKEWKPIAVIDIEEMRPETLKELLEENKGPIWIHPPGEGKPFWIPADEIEDMIDSAGGSA [r15_904_TrROS]	-0.129 ± 0.2
SAGNPDKPPKPRTYTLEIEIKLPPGDPDQAKELAHEIAHEIRDLGIKDTEVEYDPGNGRVRISITFTFWSAG [r5_512_TrROS]	3.49 ± 0.09
SPEIKIEVFKNEDGEEIFIKIEVPPGWRIRIIYNGKEIEEIEVDGYRIRFEEVDGKLRIEVEPLPPGEKPSA [r9_221_TrROS_Hall]	5.48 ± 0.15
